Measured values published in IntAct's records for PubMed 23976881.

B1: Heterogeneous nuclear ribonucleoprotein L (Homo sapiens), P14866-1 (parent)
chain: MSRRLLPRAEKRRRRLEQRQQPDEQRRRSGAMVKMAAAGGGGGGGRYYGGGSEGGRAPKRLKTDNAGDQHGGGGGGGGGAGAAGGGGGGENYDDPHKTPASPVVHIRGLIDGVVEADLVEALQEFGPISYVVVMPKKRQALVEFEDVLGACNAVNYAADNQIYIAGHPAFVNYSTSQKISRPGDSDDSRSVNSVLLFTILNPIYSITTDVLYTICNPCGPVQRIVIFRKNGVQAMVEFDSVQSAQRAKASLNGADIYSGCCTLKIEYAKPTRLNVFKNDQDTWDYTNPNLSGQGDPGSNPNKRQRQPPLLGDHPAEYGGPHGGYHSHYHDEGYGPPPPHYEGRRMGPPVGGHRRGPSRYGPQYGHPPPPPPPPEYGPHADSPVLMVYGLDQSKMNCDRVFNVFCLYGNVEKVKFMKSKPGAAMVEMADGYAVDRAITHLNNNFMFGQKLNVCVSKQPAIMPGQSYGLEDGSCSYKDFSESRNNRFSTPEQAAKNRIQHPSNVLHFFNAPLEVTEENFFEICDELGVKRPSSVKVFSGKSERSSSGLLEWESKSDALETLGFLNHYQMKNPNGPYPYTLKLCFSTAQHAS

Variants of: B1
Details: with roa2_human HNRNPA2B1, P22626
Chain of roa2_human HNRNPA2B1, P22626 (P22626 whole entry): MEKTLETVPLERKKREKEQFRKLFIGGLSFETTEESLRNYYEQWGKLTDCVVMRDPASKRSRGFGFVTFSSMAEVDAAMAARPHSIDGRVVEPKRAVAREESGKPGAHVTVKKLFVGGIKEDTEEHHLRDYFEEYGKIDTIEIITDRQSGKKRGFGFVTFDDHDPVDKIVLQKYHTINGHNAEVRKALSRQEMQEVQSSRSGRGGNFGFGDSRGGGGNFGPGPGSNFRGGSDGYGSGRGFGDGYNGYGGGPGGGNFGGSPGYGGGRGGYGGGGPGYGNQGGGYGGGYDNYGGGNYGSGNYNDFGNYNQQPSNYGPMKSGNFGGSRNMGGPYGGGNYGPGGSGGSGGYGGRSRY

Variant | effect of a mutation on the interaction
Y359D | increasing interaction strength
